Source: US20240344078A1 (AARHUS UNIVERSITET, published 2024)
Positions count from the first letter of the chain named. Numbers in names are those of the source.

Assays:
[1] = target: T1, Avi-tagged NFR5 (residues 276-595, Avitag) (Lotus japonicus, biotinylated Avi tag implied by capture on streptavidin biosensors; site not given); assay: BLI, Avi-tagged NFR5 on streptavidin biosensors, Nb200 5-0.08 µM, 1:1 association/dissociation fit
T1 construct: NFR5 intracellular domain (juxtamembrane, pseudokinase, C-terminal tail) with an N-terminal Avi tag, immobilised on streptavidin biosensors; also called NFR5 Avitag; AviTag NFR5
T1 chain: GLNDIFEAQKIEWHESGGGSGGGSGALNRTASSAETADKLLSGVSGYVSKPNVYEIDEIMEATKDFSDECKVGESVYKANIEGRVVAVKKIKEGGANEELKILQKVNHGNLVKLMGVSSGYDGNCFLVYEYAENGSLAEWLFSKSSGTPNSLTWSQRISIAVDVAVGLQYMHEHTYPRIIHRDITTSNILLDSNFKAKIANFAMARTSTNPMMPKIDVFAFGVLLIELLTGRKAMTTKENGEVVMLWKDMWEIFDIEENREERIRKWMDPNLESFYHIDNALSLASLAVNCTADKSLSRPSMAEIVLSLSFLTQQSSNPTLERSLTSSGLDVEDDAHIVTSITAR
Source text: (§1) The x-axis indicates time in seconds. The y-axis indicates the wavelength shift in nm. […] The x-axis indicates time in seconds. The y-axis indicates the wavelength shift in nm. […] Blue dotted lines demarcate fractions with complex formation, labelled as P1. Elution of excess Nb200 is labelled as P2. The x-axis indicates volume through the column in mL. The y-axis indicates the UV₂₈₀ milli absorbance units (mAu). […] The first lane, “M”, contains a molecular weight ladder, labeled to the left of the gel picture with the respective kDa amount. Lane “Inp” contains a sample of the input. Lanes “P1” contain fractions from the P1 complex section of the purification. Lanes “P2” contain fractions from the P2 section of the purification with excess Nb200. The black horizontal line over lanes indicates fractions pooled. Arrows indicate the proteins of interest.
(§2) Streptavidin (SA) biosensors (kinetic quality, Molecular devices, FortéBio) were equilibrated in Binding buffer (50 mM Tris-HCl pH 8, 200 mM NαCl, 0.01% TWEEN® 20) before use. AviTag™ NFR5 in Binding buffer was immobilized on SA sensors until 0.1 nm using an Octet® RED96 (Molecular devices, ForteBio) at 25° C. […] Unspecific binding was measured to a biotin loaded SA sensor and was subtracted from the interaction datasets.

[2] = target: T2, C-terminal tailless NFR5 (residues 276-563) (Lotus japonicus); assay: size exclusion chromatography of NFR5 (residues 276-563) mixed with an excess of Nb200, fractions analysed by SDS-PAGE (co-elution)
T2 construct: Construct used for the SEC complex and the crystal structure with Nb200 (PDB 8S79)
T2 chain: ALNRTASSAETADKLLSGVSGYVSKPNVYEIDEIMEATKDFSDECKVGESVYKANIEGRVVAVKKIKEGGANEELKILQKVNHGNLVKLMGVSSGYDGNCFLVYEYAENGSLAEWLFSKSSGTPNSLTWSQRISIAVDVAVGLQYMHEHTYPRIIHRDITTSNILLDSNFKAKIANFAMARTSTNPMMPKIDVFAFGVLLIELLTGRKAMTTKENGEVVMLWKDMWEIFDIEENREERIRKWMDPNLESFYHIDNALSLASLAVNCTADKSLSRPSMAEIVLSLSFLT

[3] = target: T1, Avi-tagged NFR5 (residues 276-595, …); assay: bio-layer interferometry; Avi-tagged NFR5 immobilised on streptavidin biosensors, Nb200 control in solution at 0.08-5 µM
Source text: as §1, §2

[4] = target: the molecule itself; assay: dynamic light scattering, concentration series 1-6 mg/ml, self-interaction in solution
Source text: Diffusion coefficients/concentration plots were used to derive self-interaction parameters, kSI (also known as the diffusion interaction parameter kD), by linear regression in GraphPad prism 9 (Graphstats Technologies).
It was hypothesized that the exposed juxtamembrane motif could function as a hydrophobic interaction surface. […] The NFR5 pattern resembled the pattern formed by the well-known oligomer forms of Bovine Serum Albumin (FIG. 7B). Dynamic light scattering (DLS) was used to measure the in solution particle size dispersity of the NFR5 sample. […] To investigate whether this self-interaction was mediated by the juxtamembrane motif, two variants were generated with substitutions in either αA (L290E, L291E) or αA′ (V294E, Y297E, V298E) that were referred to as 2E (SEQ ID NO: 148) and 3E (SEQ ID NO: 149), respectively (FIG. 7A). It was hypothesized that the introduction of charged glutamates would abolish hydrophobic interactions engaged by the motif. […] A second DLS experiment was performed to compare the in solution self-interaction of wildtype NFR5 with 2E and 3E by measuring their self-interaction parameter (kSI) over a protein concentration series (FIGS. 7D-7F). […] Next an N-terminal Avi-tagged NFR5 was purified in order to immobilize the NFR5 intracellular domain on a streptavidin biosensor (FIGS. 4A-4D, 7G). The immobilized NFR5 was used in a bio-layer interferometry experiment to measure interaction to WT, 2E, and 3E variants (FIGS. 7H-7J).

[5] = target: T1, Avi-tagged NFR5 (residues 276-595, …); assay: bio-layer interferometry; Avi-tagged NFR5 WT immobilised on streptavidin biosensors, NFR5 WT in solution at 0.07-3.6 mg/mL
Experimental: (§3) An Avi-tagged version of NFR5 WT (purple) was purified and immobilized on streptavidin biosensors (top box with four-pointed stars representing streptavidin). NFR5 loaded biosensors were assayed against NFR5 WT, 2E (SEQ ID NO: 148), and 3E (SEQ ID NO: 149). […] A clear concentration dependent interaction to NFR5 WT was measured. The x-axis indicates time in seconds; the y-axis indicates nm. […] No interaction was observed. The x-axis indicates time in seconds; the y-axis indicates nm.
as §2, with “datasets. Data was processed and analyzed in FortéBio Data Analysis 7 (Molecular devices, ForteBio) and GraphPad prism 9 (Graphstats Technologies). […]” for “datasets.”

[6] = target: T1, Avi-tagged NFR5 (residues 276-595, …); assay: bio-layer interferometry; Avi-tagged NFR5 WT immobilised on streptavidin biosensors, NFR5 2E in solution at 0.07-3.6 mg/mL
Experimental: as §3
as §2, with “datasets. Data was processed and analyzed in FortéBio Data Analysis 7 (Molecular devices, ForteBio) and GraphPad prism 9 (Graphstats Technologies). […]” for “datasets.”

[7] = target: T1, Avi-tagged NFR5 (residues 276-595, …); assay: bio-layer interferometry; Avi-tagged NFR5 WT immobilised on streptavidin biosensors, NFR5 3E in solution at 0.07-3.6 mg/mL
Experimental: as §3
as §2, with “datasets. Data was processed and analyzed in FortéBio Data Analysis 7 (Molecular devices, ForteBio) and GraphPad prism 9 (Graphstats Technologies). […]” for “datasets.”

B1: VHH Nb200 (VHH)
VHH: QVQLVESGGGSVQAGDSLRLSCTGPGRTDGPYVMGWFRQAPEKEREFVAAISRYGSGTYYADSVRGRFTISRDNVKNTVYLQMNSLKPEDTAIYYCNRVPPVLSWGQGTQVTVSS
notes: also called Nb2NFR5
- Kd [1]: 174 nM
- binding result [2]: binds

B2: VHH Nb200 control (A51E Y60E V100E) (VHH)
VHH: B1 VHH with A50E, Y59E, V99E
notes: Negative control triple mutant of Nb200; VHHs were cloned with a C-terminal 6xHis tag; also called VHH Nb200 mutant; Nb200 A51E Y60E V100E
- binding result [3]: no binding (tested: 5 µM)

B3: NFR5 intracellular domain (residues 276-595) (receptor)
chain: ALNRTASSAETADKLLSGVSGYVSKPNVYEIDEIMEATKDFSDECKVGESVYKANIEGRVVAVKKIKEGGANEELKILQKVNHGNLVKLMGVSSGYDGNCFLVYEYAENGSLAEWLFSKSSGTPNSLTWSQRISIAVDVAVGLQYMHEHTYPRIIHRDITTSNILLDSNFKAKIANFAMARTSTNPMMPKIDVFAFGVLLIELLTGRKAMTTKENGEVVMLWKDMWEIFDIEENREERIRKWMDPNLESFYHIDNALSLASLAVNCTADKSLSRPSMAEIVLSLSFLTQQSSNPTLERSLTSSGLDVEDDAHIVTSITAR
notes: Expressed with an N-terminal thioredoxin-6xHis-TEV fusion tag that was removed by TEV protease before use; also called NFR5 WT
- self-interaction parameter kSI [4]: -14.6 mL/g
- binding result [5]: binds

B4: NFR5 residues 276-595, L290E/L291E (2E) (receptor)
chain: B3 chain with L15E, L16E
notes: Mutation numbers follow full-length NFR5; also called NFR5 2E; alphaA 2E
- self-interaction parameter kSI [4]: -10.8 mL/g
- binding result [6]: no binding (tested: 3.6 mg/mL)

B5: NFR5 residues 276-595, V294E Y297E V298E (3E) (receptor)
chain: B3 chain with V19E, Y22E, V23E
notes: Mutation numbers follow full-length NFR5; also called NFR5 3E; alphaA' 3E
- self-interaction parameter kSI [4]: -7.1 mL/g
- binding result [7]: no binding (tested: 3.6 mg/mL)
